Measured values published in the DeepSol protein solubility set.

test: soluble on expression in E. coli; label from the status in PepcDB or PDB records

| Sequence | soluble on expression in E. coli |
| --- | --- |
| MTNSSNLIDSLEVYVLNNPDEVKPHWVSHFIVPTANELLIKIKNKDGHSGFGLATSYTDIAPIIKPFSNGLQDLIIGEDPFCPEKIYEKIFKLTDTRLSSEKGWSREALIRISAALDIACWDLIGKASNIPLYKLFGGFRNKIPVYVTCAYYRDGKDEKELRDEIKKLVNIGHKSFKVKVGGLSIKEDVKRLEIIRDEIGDQKGLMIDVNRAWDLKTAIEGVKEFEKFKPTWIEEPVRWEDDRRTLKLLSKQTKIPLSGGESEVTIYGCRSMIEEDAIQILQFDCTMFGGFTNGKKLSALCELNHIDVAPHHDCYIHAPLVASTPAGRIVESFDDERDPLQAQLFENPHKMSEGWIHLNKKPGLGLEISDAALKKFGKLVYKNK | soluble |
| MGSDKIHHHHHHMSISLNTCILILKEHHLLKSSAVQDTVATKMDYVSYDSRDIQTNTLFFCKGAGFRPTYLSMAKSNGANCYVAEQPYPEGKGMHALIVRDVSKAMALLSAAFFRFPQDDLYVVAFTGTKGKTTSAYFLKGMLDQANGGRTALISSVNDVVGPKPEDSFKSSLTTPESLDLFRDMRTAVDNGMTHLVMEVSSQAYKKNRVFGLTYDLGFFLNISPDHIGPNEHPNFADYLHCKLQLMVNSRKCIINAETANFNEVYAAATTTTNPDSIYLFAREDFENPDLDVPIDFRFASQELDMKETRFKLFCATDKAKKLPINGDYTLKMLGDFNESNGTAAIIGAGLAGLNHDQCAKGIRNVTIPGRMQTERTKEHGMVVVDYAHNKASMMALMRFMQNEFNDPKIIVVVGAPGDKGVSRRPGFSESLSAYADKAFLTTDDPGFEDPKSIAEEIDAGIDHSKCDVTIELDRKKAIHDAIASAGPDDVVLICGKGADAFQKIRGVDTPYPSDIVVAQQVINELEGQDEHFRK | not soluble |
| MGSDKIHHHHHHMNAPRFAAPARRTKKLPPLRVGIGGPVGSGKTTLLEMLCKGMRERYDLVAITNDIYTKEDQRLLTIAGALPEARIMGVETGGCPHTAIREDASINLEAVERMLARFPDADIVFIESGGDNLAATFSPELSDLTIYVIDVAGGEKIPRKGGPGITKSDLLVINKTDLAPLVGANLEVMASDTRKMRGERPYVMCNLKALDGVADVIAFIENKGLLTV | not soluble |
| RMSEQSICQARAAVMVYDDANKKWVPAGGSTGFSRVHIYHHTGNNTFRVVGRKIQDHQVVINCAIPKGLKYNQATQTFHQWRDARQVYGLNFGSKEDANVFASAMMHALEVLNS | soluble |
| NLKVEFYNSNPSDTTNSINPQFKVTNTGSSAIDLSKLTLRYYYTVDGQKDQTFWCDHAAIIGSNGSYNGITSNVKGTFVKMSSSTNNADTYLEISFTGGTLEPGAHVQIQGRFAKNDWSNYTQSNDYSFKSASQFVEWDQVTAYLNGVLVWGKEP | soluble |
| MPAELLLYRSNLLGSDLTVTNFGGGNTSAKLEEMDPLTGEPVEVLWVKGSGGDIGSMKIDGFATLYQAKLLGLEAHYAGPQDDDKMVGFLPHCTFNLNCRAASIDTPLHSLLPFAHVDHVHPDAIIALAASSGGEAATKEIWGGRIGWLPWKRPGYTLGVMLRDFVKANPGVEGVMLAGHGIICWADSAKACYEHTVRLIADAAGYLNARLAEKPAFGGRLEHHHHHH | not soluble |
| GPGSMKRHGVRLRRSIKETAVTIGCDEAGRGPLAGPVVGAAVSRIPVSSFNNEFDQLYEAPEQFQIFDSKSVSERQRDLVFAMITGHVDFFDIASCKKFVVHHCAGDEATSLTLSSKKLDSHVKLSKLPFKKLLSMQTPYLITYHGYNSAGNYVYFWSIGIANHTYIDEYNIYNASMNTMHRSAQSIWHMLSDARFSHEAAPRPRSSSIAQYLFSRFCTAANHDNEKRYQVPHHLELLKGATEYFDFEPIQPPLVLIDGHAVPGPSYDYFTSVRIGGDVQPIIEGDKRSLSIAAASCLAKVTRDELMNYIDALYPGYGFRDNKGYPVEQHMKYVAKNGLCPIHRKTYRPCRTVLEKGLQRK | not soluble |
| SAASGESGTSGGGGSTEEAFMTFYSEVKQIEKRDSVLTSKNQIERLTRPGSSYFNLNPFEVLQIDPEVTDEEIKKRFRQLSILVHPDKNQDDADRAQKAFEAVDKAYKLLLDQEQKKRALDVIQAGKEYVEHTVKERKKQLKKEGKPTIVEEDDPELFKQAVYKQTMKLFAELEIKRKEREAKEMHERKRQREEEIEAQEKAKREREWQKNFEESRDGRVDSWRNFQANTKGKKEKKNRTFLRPPKVKMEQRE | soluble |
| MEGVELKEEWQDEDFPIPLPEDDSIEADILAITGPEDQPGSLEVNGNKVRKKLMAPDISLTLDPSDGSVLSDDLDESGEIDLDGLDTPSENSNEFEWEDDLPKPKTTEVIRKGSITEYTAAEEKEDGRRWRMFRIGEQDHRVDMKAIEPYKKVISHGGYYGDGLNAIVVFAVCFMPESSQPNYRYLMDNLFKYVIGTLELLVAENYMIVYLNGATTRRKMPSLGWLRKCYQQIDRRLRKNLKSLIIVHPSWFIRTLLAVTRPFISSKFSQKIRYVFNLAELAELVPMEYVGIPECIKQVDQELNGKQDEPKNEQLEHHHHHH | soluble |
| MKAYKLLTTASIGALMLGMSTAAYSDNWRYAHEEYEGDVQDVFAQAFKGYVEDNSDHTVQVYRFGELGESDDIMEQTQNGILQFVNQSPGFTGSLIPSAQIFFIPYLMPTDMDTVLEFFDESKAINEMFPKLYAEHGLELLKMYPEGEMVVTADEPITSPEDFDNKKIRTMTNPLLAETYKAFGATPTPLPWGEVYGGLQTGIIDGQENPIFWIESGGLYEVSPNLTFTSHGWFTTAMMANQDFYEGLSEEDQQLVQDAADAAYDHTIEHIKGLSEESLEKIKAASDEVTVTRLNDEQIQAFKERAPQVEEKFIEMTGEQGQELLDQFKADLKAVQSESEG | soluble |
| ASIFGVFDIKTDAVELRKKALELSRLMRHRGPDWSGIYASDNAILAHERLSIVDVNAGAQPLYNQQKTHVLAVNGEIYNHQALRAEYGDRYQFQTGSDCEVILALYQEKGPEFLDDLQGMFAFALYDSEKDAYLIGRDHLGIIPLYMGYDEHGQLYVASEMKALVPVCRTIKEFPAGSYLWSQDGEIRSYYHRDWFDYDAVKDNVTDKNELRQALEDSVKSHLMSDVPYGVLLSGGLDSSIISAITKKYAARRVEDQERSEAWWPQLHSFAVGLPGSPDLKAAQEVANHLGTVHHEIHFTVQEGLDAIRDVIYHIETYDVTTIRASTPMYLMSRKIKAMGIKMVLSGEGSDEVFGGYLYFHKAPNAKELHEETVRKLLALHMYDCARANKAMSAWGVEARVPFLDKKFLDVAMRINPQDKMCGNGKMEKHILRECFEAYLPASVAWRQKEQFSDGVGYSWIDTLKEVAAQQVSDQQLETARFRFPYNTPTSKEAYLYREIFEELFPLPSAAECVPGGPSVACSSAKAIEWDEAFKKMDDPSGRAVGVHQSAYK | soluble |
| DNTQHYRELFLDDIPLMDVRAPVEYHKGAFPNTVNRPLMNDIERQKVGTSYKQHGQQAAIALGHELVCGALKAERLAAWKAFAEANPNGYLYCFRGGLRSQIVQQWLKQDAGIDYPRVIGGYKALRNFLFETTRAAVDECDFVLVGGLTGCGKTEVIAALDNSLDLEGHANHRGSSFGRRATPQPAQIDFENRLAIDILKKRHRGVGQFVLEDEGRIVGSCSLPLELYQGMQGYPLVWLEDAFEQRVERILRDYVIDLRSEFERVVGVEEGFAAFSAYLQKSLAGIVKRLGGERYQRLAAILVQALEEQGRDGSVDTHRGWIEGLLKEYYDPMYAFQRQSKEDRVEFRGNQAEVIGYLR | not soluble |
| MGSDKIHHHHHHMQNQKPSVSLIRATSYEREALKNSLVTLLEPFGGMAAFVKPGQRVLLKPNLLTGARPTKECTTRAELVYAVAQMVIAAGGKPFLGDSPAFGSAKGVAIANGYQPLIQELNLPIIDFHGKRYETVSENFNHLLLSKEVIEADVVINLPKVKSHAQLTLTLGVKNLFGCVPGKMKAWWHMEAGKDADRFGEMLVETARAINPDLTILDGIIGHEGNGPSGGEPRALGILAAASDIFALDRAMVEILNVPPHQVPTVAASQRLRVCPELADVEFPNLHPDLLKIYDWQLPDKLMPIDFAMPRVIKSTFKHFYIRFIKEPMSAYGKQ | not soluble |
| IATGIPTGFKDLDDLTNGLRGGQMIIVAARPGVGKSTIALDFMRSASIKNNMASVIFSLEMSKSEIVMRLLSAETEIRLADMRGGKMDETAWEKMVQKLDKVAQAPLFIDDSANLTMMEIRSKARKLKQKHDLKMIVVDYLQLMSSGKRVESRQQEVSEFSRQLKLLAKELDVPLIAISQLNRGPESRTDKRPQLADL | not soluble |
| MTPYNEREVLKLLQEESTQRKGFELIVAQYSEQLYWQIRRMVLSHEDANDLLQNTFIKAWTNIDYFRAEAKLSTWLYRIALNECLTFLNRQRATTTVAIDDPEAAIVQKLESDPYYSGDQVQMLLQKALLTLPEKQRMVFNLKYYQEMKYEEMSEIFGTSVGALKASYHHAVKKIEKFLEEVD | not soluble |
| MNDNKILVVNAGSSSIKFQLFDYHKKVLAKALCERIFVDGFFKLEFNEQKVEEKVAFPDHHAAVTHFLNTLKKHKIIQELSDIILVGHRVVQGANYFKDSVIVDAEALAKIKEFIKLAPLHNKPEADVIEIFFKEVPSAKNVAVFDTTFHTTIPQENYLYAVPRSWEQKHLVRRYGFHGTSYKFINNYLEKHLNKQNLNLIVCHLGNGASVCAIKNGKSFNTSMGFTPLEGLIMGTRSGDLDPAIIGYVAEQENMSASDVVNALNKKSGMLALTGASDMRDVFAKPQENAVAIKMYVNRVADYIAKYLNQLEGNIDGLVFTGGIGENASDCVELFINAVKSLGFATDLKLFVKYGDSCVVSTPQSKYKIYRVRTNEELMIVEDSIRLTQK | soluble |
| MLETRATTAKQLVQAPEQPAPQPEVAPPTTEQPAPAPAPGTTPGTENFNTPNATPETTEPRVLVSEVLVRPQSGQLTPELETQVYNVIRTQPGRTTTRSQLQEDINAIFGTGFFSNVQASPEDTPLGVRVSFIVQPNPVLSKVEIQANPGTNVPSVLPQATADEIFRAQYGKILNLRDLQEGIKELTKRYQDQGYVLANVVGAPQVSENGVVTLQVAEGVVENISVRFRNKEGQDVNEQGQPIRGRTQDYIITREVELKPGQVFNRNTVQKDLQRVFGTGLFEDVNVSLDPGTDPTKVNVVVNVVERSLEHHHHHH | soluble |
| MGSDKIHHHHHHEVPIGFDTDELSFDMSLVLLTGDMQTKASDPNYTYATTEELTIQNCHVAVFDKDGKRIYFKNFYSKDLGEMKTIGNLSGYELQLEGVRTFGKEDKKVSVLVVANANNANNSPFDNLTTYDGVDNSYTAKTIAKGPVTASLLVKIGKSETTLKYNQDNAPVTVSLIQLSAKIEYTGVYKKENGELLEGFSLTKVAGLNASSKITIFNTSAVENGAFSDLAYPTTKPVTFYTYEISDAFKEVILSVQSGVEPKEYPFPANKFIKGNYYRIKGLKSSTEIEWVLENVEDKEVTLDPFE | not soluble |
| MLHLVLYQPEIPQNAGNVARTAAALGWPLHLIRPLGFLLSSPKLKRAGLDYWPHVDLRLHDSFAAFLEALPRGARVFAFSARGEASLYEARFREGDYLLFGPESRGLPEEVLARFPTLKIPMPGPVRSLNLAVAVGVAAYEAYRQLTGR | soluble |
| MRGTDMAKQQMNIKIKKGEQFPVTIQRIGINGEGVGYFQKQVVFVPGALPGEEVIVEATDIHPTYAEAKIKRIRKRSPNRIKPPCPLYDQCGGCQLQHLSYEAQLEAKRDIVIQALRRHARRLDVDKLDIRPTIGMDNPWHYRNKSQFQVGMKEGKVLAGLYGINSHRLIDLSECRVQHPQTTRVTNIVKTILQDLRIPIYNERTRTGVVRTIVVRVGFHTGDIQLVLVTATKDIPRKQLLIDEIRRRLPEVKSIVQNINGEKTSLIFGDETEVLAGDEYIQETLGDLSFELSSRAFFQLNPLQTVKLYDEVKKAAALTGTERIVDAYCGVGTIGLWLARDAKEVRGMDTIPEAIEDAQNNAKKHGFTNTHYVVGKAEYWLPKWVKGGWKPDVIIVDPPRVGCDRALLETILHVRPKTVVYVSCNPSSLARDLDALAAQYRVDYIQPVDMFPHTAHVECVAKVRLEL | not soluble |
